Data from publication doi:10.1101/2021.10.18.464377.
Several values for one entry are separate records, joined by “and”; a condition that tells them apart may be missing. Equal values may be shown once.

Molecular target: Synaptotagmin 2 K60A expressed in PC12 or HEK 293 cells (UniProt P29101)
Experiment: immunostaining of cells or tissue

Sequence of UniProt P29101 (P29101 whole entry K60A): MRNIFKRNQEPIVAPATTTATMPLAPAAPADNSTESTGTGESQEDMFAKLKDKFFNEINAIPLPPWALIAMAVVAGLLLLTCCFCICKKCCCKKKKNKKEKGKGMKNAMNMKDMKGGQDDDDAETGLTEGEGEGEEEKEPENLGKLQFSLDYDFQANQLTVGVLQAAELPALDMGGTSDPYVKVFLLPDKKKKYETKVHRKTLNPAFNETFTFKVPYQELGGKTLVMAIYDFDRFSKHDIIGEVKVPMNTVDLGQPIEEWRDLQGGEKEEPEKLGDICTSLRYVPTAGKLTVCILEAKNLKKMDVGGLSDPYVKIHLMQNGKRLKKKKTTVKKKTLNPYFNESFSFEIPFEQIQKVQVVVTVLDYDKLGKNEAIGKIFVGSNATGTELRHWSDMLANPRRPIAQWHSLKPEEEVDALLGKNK

Substance: Botulinum neurotoxin serotype B (B1 Okra strain) with non-toxic accessory proteins (complex)
- decrease of BoNT/B binding against SYT2-WT: 64% and 69%
